The values that follow are results of earlier work, collected in article PMC8509676, “Residual Helicity at the Active Site of the Histidine Phosphocarrier, HPr, Modulates Binding Affinity to Its Natural Partners” (International Journal of Molecular Sciences, 2021).

This data set concerns the target Rsd. Also on record: method as in PMID 24324139. The settings on record: SPR; read-out: dissociation constant, Rsd-HPr in E. coli; cited from earlier work.

B1: HPr^sc: intact histidine phosphocarrier protein HPr from Streptomyces coelicolor (O50515) (protein, UniProt O50515 2-93, looked up)
Phosphocarrier protein HPr: AERRVNVGWAEGLHARPASIFVRAATATGVPVTIAKADGSPVNAASMLAVLGLGAQGGEEIVLASDAEGAEAALERLAKLVAEGLEELPETV
Take B1: the Kd was 8.87 nM.
